Values of other authors in US9040062B2, “Preparation for treatment of spinal cord injury” (SUMITOMO DAINIPPON PHARMA CO., LTD., priority 2010, dated 2015).

System: cultural neuron
Settings: short time

B1: semaphorin 3A: endogenous protein that retracts the nerve growth cone and suppresses axonal growth (protein, UniProt Q14563 21-771, looked up)
Semaphorin-3A: NYQNGKNNVPRLKLSYKEMLESNNVITFNGLANSSSYHTFLLDEERSRLYVGAKDHIFSFDLVNIKDFQKIVWPVSYTRRDECKWAGKDILKECANFIKVLKAYNQTHLYACGTGAFHPICTYIEIGHHPEDNIFKLENSHFENGRGKSPYDPKLLTASLLIDGELYSGTAADFMGRDFAIFRTLGHHHPIRTEQHDSRWLNDPKFISAHLISESDNPEDDKVYFFFRENAIDGEHSGKATHARIGQICKNDFGGHRSLVNKWTTFLKARLICSVPGPNGIDTHFDELQDVFLMNFKDPKNPVVYGVFTTSSNIFKGSAVCMYSMSDVRRVFLGPYAHRDGPNYQWVPYQGRVPYPRPGTCPSKTFGGFDSTKDLPDDVITFARSHPAMYNPVFPMNNRPIVIKTDVNYQFTQIVVDRVDAEDGQYDVMFIGTDVGTVLKVVSIPKETWYDLEEVLLEEMTVFREPTAISAMELSTKQQQLYIGSTAGVAQLPLHRCDIYGKACAECCLARDPYCAWDGSACSRYFPTAKRRTRRQDIRNGDPLTHCSDLHHDNHHGHSPEERIIYGVENSSTFLECSPKSQRALVYWQFQRRNEERKEEIRVDDHIIRTDQGLLLRSLQQKDSGNYLCHAVEHGFIQTLLKVTLEVIDTEHLEELLHKDDDGDGSKTKEMSNSMTPSQKVWYRDFMQLINHPNLNTMDEFCEQVWKRDRKQRRQRPGHTPGNSNKWKHLQENKKGRNRRTHEFERAPRSV
  concentration inducing growth cone retraction: 10 pM
